According to patent US20230054956A1 (VANDERBILT UNIVERSITY, published 2023):

T1: GII.4 Sydney 2012 virus-like particles (VLPs), based on strain AFV08795.1 (human norovirus GII.4 Sydney 2012, UniProt P54635 1-538, The particle is a multimeric assembly of VP1 with a little VP2 inside; one VP1 chain is given.)
T1 construct: VLP assembled from VP1 and VP2 in baculovirus/Sf9 cells; also called GII.4 VLPs
T1 chain: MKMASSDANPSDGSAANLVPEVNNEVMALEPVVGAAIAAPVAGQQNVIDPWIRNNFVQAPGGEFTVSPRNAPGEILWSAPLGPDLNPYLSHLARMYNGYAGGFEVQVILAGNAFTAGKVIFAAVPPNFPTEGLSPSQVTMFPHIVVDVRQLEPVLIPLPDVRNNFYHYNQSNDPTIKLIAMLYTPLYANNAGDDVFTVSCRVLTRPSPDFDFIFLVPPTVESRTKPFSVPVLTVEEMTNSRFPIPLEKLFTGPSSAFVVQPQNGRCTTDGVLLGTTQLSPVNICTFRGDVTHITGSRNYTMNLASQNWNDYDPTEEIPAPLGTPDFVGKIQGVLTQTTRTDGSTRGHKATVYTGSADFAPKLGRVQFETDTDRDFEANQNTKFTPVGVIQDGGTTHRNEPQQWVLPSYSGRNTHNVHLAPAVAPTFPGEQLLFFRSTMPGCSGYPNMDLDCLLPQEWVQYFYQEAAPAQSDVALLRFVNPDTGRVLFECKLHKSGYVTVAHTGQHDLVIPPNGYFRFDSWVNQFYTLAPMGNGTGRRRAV


Columns and labels:
[1] = molecular target: GII.4 Houston 2002 (ABY27560.1) VLPs (human norovirus GII.4 Houston 2002, UniProt P54635 1-539); test: ELISA, VLP
[2] = molecular target: GII.4 Sydney 2012 virus-like particles (VLPs), based on strain AFV08795.1 (human norovirus GII.4 Sydney 2012, UniProt P54635 1-538, The particle is a multimeric assembly of VP1 with a little VP2 inside; one VP1 chain is given.); test: indirect ELISA, VLP coated
[3] = molecular target: T1, GII.4 Sydney 2012 virus-like particles …; test: indirect ELISA, VLP coated

Binder	fold higher binding EC50 than to GII.4 Sydney 2012 VLPs [1] [fold]	EC50 [2] [µg/mL]	EC50 [3] [µg/mL]
NORO-329A (antibody, V domains shown) VH: QVQLVESGGGLVKPGGSLRLSCAASGFTFSDYYMSWIRQAPGKGLEWISYISSSFGSTDYAGSMKGRFTISRDNAKNSLYLQMNSLRAEDTAVYYCARYNYYGSGSFVFDYWGQGTLVTVSS VL: not shown	> 10	0.2	–
NORO-232A.2 (antibody, V domains shown, human hybridoma mAb; IgA, kappa; in both panels) VH: QVQLKQWGAGLLKSSETLSLTCAFNGNSFGAFYWSWIRLSPGKGLEWIGEVNYLGGADYNPSLKSRVTMSADTSKRQFSLSLKSVTAADTGVYFCARGRPHDYSPGSYSRPRRYYGLDVWGQGTTVTVSS VL: EIVLTQSPATLSLSPGDSATLSCRASQAVSTTYLAWYQQTRGQAPRLLIHGTYTRAIGIPDKFSGTGSGTDFTLTISGLAPEDFAVYYCQQYSSSPYTFGQGTKIEIT	–	–	0.3
NORO-246A (antibody, V domains shown, human hybridoma mAb; IgG, lambda) VH: EVHLVESGGGLVKPGGSLRLSCAASGFTFSRYGMHWVRQAPGKGLEWVSSIVIRSDYKYYADSVKGRFTISRDNAKNSLYLQMNSLRADDTAVYYCARDLVEPGITPVGCDYWGRGTLVTVSS VL: SNELTQAPSVSVSPGQTARITCFGDALANQYSYWYQRKPGQAPVLVIYKDSERPSGIPQRFSASNSGTTVTLTITGVQAEDEADYFCQSADSTGIYKVFGGGTKLTVL	–	–	0.2
NORO-327A (antibody, V domains shown, human hybridoma mAb; IgG, lambda) VH: QVQLEVSGGGLVKPGGSLRLSCAASGFTFTDYYMSWIRQAPGKGLEWVAYISGIMSSTKYADSVKGRFTISRDNGKNSVYLQMNSLTAEDTAVYYCARERVEPPSAVTDFWGQGTLVTVSS VL: QSVLTQSPSVSGAPGQRVTISCTGTSSNIGAGYDVHWYQQFPGTAPKLLISHNTNRPSGVPDRFSGSKSGTSASLAITGLQAEDEADYYCQSFDSSLRGSRVFGGGTKLTVL	–	–	0.6
NORO-115 (antibody, V domains shown) VH: QVQLVESGGGLVKPGGSLRLSCTASGITISGYYMSWIRQAPGKGLEWIVYINTSGRTIYYADSVKGRFSVSRDNAKESLYLQMDSLTVDDTGIYYCARDRLPASGSHWFHPWGQGTLVTVSS VL: DIVMTQSPDSLAVSLGGRATINCKSSQSVLYTSDNKNYLAWYQQQPGQPPKLLISWASTRESGVPDRFSGSGSGTDFTLTISNLQAEDVAVYYCQQYYNSPLAFGGGTKVEIK	> 10	0.1	–
